Here are results for one substance from article PMC2778690.

Like-named read-outs stand apart in the source and are kept apart here.

The target of assay [1] is Human Bax alpha (human) (UniProt Q07812). The assay is described as follows: cross-linking.
The target is the same in assay [2]. The assay is described as follows: cross-linking. The source holds these as a separate data set.

One may read the stoichiometry N as the number of molecules, sites or subunits per partner or assembly.

With “Human Bax alpha (from UniProt Q07812 1-192) (natural protein)”, the stoichiometry N was 2 with Human Bax alpha (human) [1] and below 8 with Human Bax alpha (human) [2].
